The source of these data is patent EP4722245A1, “ANTIBODY TARGETING ITGA2, ANTIBODY DRUG CONJUGATE THEREOF, AND USE” (Foreseen Technology (Beijing) Co., Ltd., priority 2023, dated 2024).

Assay [1] has as its target T1, ITGA2 protein on the surface of human tumor cells (human, UniProt P17301 30-1181).
T1 construct: whole, on cells; Endogenously expressed; the cell line is named under assay or readout; also called Integrin alpha-2; ITGA2-positive HuCCT1 cells
T1 sequence (looked up): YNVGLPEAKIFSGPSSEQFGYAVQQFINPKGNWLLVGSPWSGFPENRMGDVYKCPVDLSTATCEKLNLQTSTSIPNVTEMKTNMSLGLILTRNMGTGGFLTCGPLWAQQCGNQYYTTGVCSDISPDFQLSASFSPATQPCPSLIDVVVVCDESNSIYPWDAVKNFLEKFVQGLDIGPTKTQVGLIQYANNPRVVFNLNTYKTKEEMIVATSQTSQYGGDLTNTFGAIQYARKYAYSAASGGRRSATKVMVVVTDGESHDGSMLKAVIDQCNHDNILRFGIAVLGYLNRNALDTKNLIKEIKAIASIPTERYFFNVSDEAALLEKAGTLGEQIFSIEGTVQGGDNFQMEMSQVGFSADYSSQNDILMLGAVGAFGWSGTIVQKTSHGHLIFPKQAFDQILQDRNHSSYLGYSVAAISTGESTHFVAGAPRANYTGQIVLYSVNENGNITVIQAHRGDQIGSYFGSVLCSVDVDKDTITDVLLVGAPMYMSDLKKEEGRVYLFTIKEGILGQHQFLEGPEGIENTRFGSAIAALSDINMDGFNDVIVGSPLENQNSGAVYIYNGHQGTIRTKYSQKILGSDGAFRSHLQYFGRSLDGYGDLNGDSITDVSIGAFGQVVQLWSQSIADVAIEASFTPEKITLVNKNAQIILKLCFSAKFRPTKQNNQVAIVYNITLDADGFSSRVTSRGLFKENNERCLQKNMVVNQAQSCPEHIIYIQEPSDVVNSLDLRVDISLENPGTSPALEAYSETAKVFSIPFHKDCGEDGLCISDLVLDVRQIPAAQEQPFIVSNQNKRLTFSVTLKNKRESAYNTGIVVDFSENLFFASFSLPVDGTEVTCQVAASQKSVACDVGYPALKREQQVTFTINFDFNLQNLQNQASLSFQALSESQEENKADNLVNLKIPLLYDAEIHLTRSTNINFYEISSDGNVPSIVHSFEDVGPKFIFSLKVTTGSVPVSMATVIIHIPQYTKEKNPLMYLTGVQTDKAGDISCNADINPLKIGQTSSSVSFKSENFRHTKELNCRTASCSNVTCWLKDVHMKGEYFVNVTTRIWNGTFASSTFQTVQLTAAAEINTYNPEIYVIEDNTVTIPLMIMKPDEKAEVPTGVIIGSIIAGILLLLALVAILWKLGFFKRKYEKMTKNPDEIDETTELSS
In words: flow cytometry on HuCCT1 cells. On the technique in general: Flow cytometry measures light scatter and fluorescence of single cells or particles in a stream.

For another assay, the target named is T2, ITGA2-His (UniProt P17301 30-1132, limits assumed).
T2 construct: Coated on the ELISA plate at 2 ug/mL; whole entry P17301 is named; also called ITGA2 protein; not shown: His tag
T2 sequence (looked up): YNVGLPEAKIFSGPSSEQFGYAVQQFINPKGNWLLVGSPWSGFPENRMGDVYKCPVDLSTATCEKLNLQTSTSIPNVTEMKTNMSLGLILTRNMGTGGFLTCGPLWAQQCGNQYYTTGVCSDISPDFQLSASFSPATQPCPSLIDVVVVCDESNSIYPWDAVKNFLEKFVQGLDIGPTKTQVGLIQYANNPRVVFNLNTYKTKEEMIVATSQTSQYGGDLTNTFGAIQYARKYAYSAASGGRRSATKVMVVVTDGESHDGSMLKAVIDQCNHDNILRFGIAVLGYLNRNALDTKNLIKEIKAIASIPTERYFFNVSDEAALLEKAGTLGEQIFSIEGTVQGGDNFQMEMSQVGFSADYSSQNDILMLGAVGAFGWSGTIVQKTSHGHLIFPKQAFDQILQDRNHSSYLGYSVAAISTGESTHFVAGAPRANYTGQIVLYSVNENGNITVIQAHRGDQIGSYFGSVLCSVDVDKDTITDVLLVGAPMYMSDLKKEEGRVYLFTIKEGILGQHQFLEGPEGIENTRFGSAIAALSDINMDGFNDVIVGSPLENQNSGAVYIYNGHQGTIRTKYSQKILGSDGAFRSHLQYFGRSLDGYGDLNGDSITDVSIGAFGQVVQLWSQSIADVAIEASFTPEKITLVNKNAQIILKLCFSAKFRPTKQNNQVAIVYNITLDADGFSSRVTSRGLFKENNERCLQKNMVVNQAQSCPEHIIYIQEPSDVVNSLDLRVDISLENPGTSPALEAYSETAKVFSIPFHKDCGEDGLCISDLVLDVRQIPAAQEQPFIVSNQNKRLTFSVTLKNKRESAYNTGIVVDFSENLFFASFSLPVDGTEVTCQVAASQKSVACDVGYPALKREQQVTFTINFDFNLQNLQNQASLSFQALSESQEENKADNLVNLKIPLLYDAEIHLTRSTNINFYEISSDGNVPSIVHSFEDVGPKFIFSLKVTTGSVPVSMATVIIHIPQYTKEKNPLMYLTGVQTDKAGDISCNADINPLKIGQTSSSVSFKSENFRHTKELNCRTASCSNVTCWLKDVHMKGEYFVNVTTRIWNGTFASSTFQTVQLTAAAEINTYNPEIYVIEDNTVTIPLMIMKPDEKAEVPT
In words: ELISA, plate coated with 2 ug/mL ITGA2-His, anti-human IgG-Fc-HRP detection. On the technique in general: ELISA stands for enzyme-linked immunosorbent assay.

B1: Chimeric mouse antibody FS002-A103 (antibody, human IgG1, kappa, V domains shown)
VH: QVQLQQSGAELVRPGASVTLSCKASGYTFTDYEMHWVKQTPVHGLEWIGVIDPETGGTTYNQKFNDKATLTADKSSSTAYMDLRSLTSEDSAVYYCSRSGYYVSSYESYAMDYWGQGTSVTVSS
VL: DIVMTQSPKSMSMSVGERVTLSCKASENVGTYVSWYQQKPEQSPKLLIYGASTRESGVPDRFTGSGSGTDFTLTISSVQAEDLAVYYCQNDYSYPFTFGSGTKLEIKR
notes: Chimeric; expressed in ExpiCHO-S
A word on the EC50: it is the concentration needed to bring the measured effect to its halfway point. High values mean weaker potency, low ones greater potency. In the case of B1, the EC50 in assay [1] came to 0.633 nM; in the assay with ITGA2-His, 0.017 nM.

B2: Humanized antibody FS002-A153-H5L2 (antibody, human IgG1, kappa, V domains shown)
VH: QVQLVQSGAEVKKPGASVKVSCKASGYTFTDYEMHWVRQAPGQGLEWMGTIDPETGGTTYAQKFQGRVTMTADTSISTAYMELSRLRSDDTAVYYCARSGYYVSSYESYAMDYWGQGTTVTVSS
VL: DIVMTQSPDSLAVSLGERVTMNCKSSQSLLNSGNQKNYLTWYQQKPGQPPKLLIYGASTRESGVPDRFSGSGSGTDFTLTISSLQAEDVAVYYCQNDYSYPFTFGGGTKLEIKR
notes: Humanized IgG1 kappa
Regarding B2, the EC50 in assay [1] came to 0.22 nM; with ITGA2-His, 0.009 nM.

B3: Humanized antibody FS002-A153-H5L5 (antibody, human IgG1, kappa, V domains shown)
VH: QVQLVQSGAEVKKPGASVKVSCKASGYTFTDYEMHWVRQAPGQGLEWMGTIDPETGGTTYAQKFQGRVTMTADTSISTAYMELSRLRSDDTAVYYCARSGYYVSSYESYAMDYWGQGTTVTVSS
VL: EIVMTQSPPTLSLSPGERVTMSCRSSQSLLNSGNQKNYLTWYQQKPGQAPRLLIYGASTRESGVPARFSGSGSGTDFTLTISSLQPEDFAVYYCQNDYSYPFTFGGGTKLEIKR
notes: Humanized IgG1 kappa
As to B3, the EC50 in assay [1] was 0.48 nM; with ITGA2-His, 0.022 nM.

B4: Humanized antibody FS002-A153-H3L3 (antibody, human IgG1, kappa, V domains shown)
VH: QVQLVQSGAEVKKPGASVKLSCKASGYTFTDYEMHWVRQAPGQGLEWIGTIDPETGGTTYNQKFQGRVTLTADTSISTAYMELSRLRSDDTAVYYCSRSGYYVSSYESYAMDYWGQGTTVTVSS
VL: DIVMTQSPDSLAVSLGERATINCKSSQSLLNSGNQKNYLTWYQQKPGQPPKLLIYGASTRESGVPDRFSGSGSGTDFTLTISSLQAEDVAVYYCQNDYSYPFTFGGGTKLEIKR
notes: Humanized IgG1 kappa
Take B4: the figures for the half-maximal effective concentration (EC50) (in assay [1]; with ITGA2-His) were 0.42 nM and 0.014 nM, respectively.

B5: Humanized antibody FS002-A153-H4L2 (antibody, human IgG1, kappa, V domains shown)
VH: QVQLVQSGAEVKKPGASVKVSCKASGYTFTDYEMHWVRQAPGQGLEWMGTIDPETGGTTYAQKFQGRVTLTADTSISTAYMELSRLRSDDTAVYYCSRSGYYVSSYESYAMDYWGQGTTVTVSS
VL: DIVMTQSPDSLAVSLGERVTMNCKSSQSLLNSGNQKNYLTWYQQKPGQPPKLLIYGASTRESGVPDRFSGSGSGTDFTLTISSLQAEDVAVYYCQNDYSYPFTFGGGTKLEIKR
notes: Humanized IgG1 kappa
Take B5: the figures for the EC50 (in assay [1]; in the assay with ITGA2-His) were 0.313 nM and 0.011 nM, respectively.

B6: Humanized antibody FS002-A153-H5L1 (antibody, human IgG1, kappa, V domains shown)
VH: QVQLVQSGAEVKKPGASVKVSCKASGYTFTDYEMHWVRQAPGQGLEWMGTIDPETGGTTYAQKFQGRVTMTADTSISTAYMELSRLRSDDTAVYYCARSGYYVSSYESYAMDYWGQGTTVTVSS
VL: DIVMTQSPDSLAVSLGERVTMSCKSSQSLLNSGNQKNYLTWYQQKPGQPPKLLIYGASTRESGVPDRFTGSGSGTDFTLTISSLQAEDVAVYYCQNDYSYPFTFGGGTKLEIKR
notes: Humanized IgG1 kappa
As for B6, the EC50 in assay [1] was 0.58 nM; with ITGA2-His, 0.027 nM.

B7: Humanized antibody FS002-A153-H5L4 (antibody, human IgG1, kappa, V domains shown)
VH: QVQLVQSGAEVKKPGASVKVSCKASGYTFTDYEMHWVRQAPGQGLEWMGTIDPETGGTTYAQKFQGRVTMTADTSISTAYMELSRLRSDDTAVYYCARSGYYVSSYESYAMDYWGQGTTVTVSS
VL: DIVMTQSPPTLSVSPGERVTMSCKSSQSLLNSGNQKNYLTWYQQKPGQAPRLLIYGASTRESGVPDRFSGSGSGTDFTLTISSLQPEDFAVYYCQNDYSYPFTFGGGTKLEIKR
notes: Humanized IgG1 kappa
For the molecule B7, the results for the EC50 (in assay [1]; in the assay with ITGA2-His) were 0.487 nM and 0.024 nM, respectively.
